Measurements published in article PMC8610377, “Target identification for small-molecule discovery in the FOXO3a tumor-suppressor pathway using a biodiverse peptide library” (Cell Chemical Biology, 2021).

Assays:
[1] = target: TAMRA-9J10Min peptide (5-TAMRA-GRRRN(p-Serine)N-acid) (Streptomyces avermitilis); assay: fluorescence polarisation; His-14-3-3ε titrated against 10 nM TAMRA-p9J10Min; 10 mM HEPES, 150 mM NaCl, 0.05% Tween; room temperature
9J10/14-3-3ε interaction = target: T1, 9J10/14-3-3ε interaction (Homo sapiens, UniProt P62258); assay: FP competition, TAMRA-p9J10Min binding to 14-3-3ε; details: 10nM TAMRA-p9J10Min, 1.5μM His-14-3-3ε, room temperature 20 min; mean of 3 independent experiments +/- SD; read-out: IC50, FP competition (unlabelled peptide)
T1 construct: A synthetic gene construct encoding full length human 14-3-3ε; made in house; host or cells: E. coli BL21(DE3)
T1 sequence (P62258 1-255): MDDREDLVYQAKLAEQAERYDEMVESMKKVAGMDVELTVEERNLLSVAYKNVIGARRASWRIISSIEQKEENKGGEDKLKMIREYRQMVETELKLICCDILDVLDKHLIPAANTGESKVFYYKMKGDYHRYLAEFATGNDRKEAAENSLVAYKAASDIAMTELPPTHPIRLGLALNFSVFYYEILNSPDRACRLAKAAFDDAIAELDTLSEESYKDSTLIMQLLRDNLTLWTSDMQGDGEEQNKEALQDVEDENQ
Experimental: Protein purity was visualized by running SDS-PAGE. […] Compound dilution plates, black 384 well NBS assay plates and tip racks were loaded into the Cytomat as indicated by the scheduling software. […] Test compounds were diluted to 3X final concentration in the dilution plates. 10 μL of diluted compound was added into each well of the assay plate followed by 10μL of […]-3-3ε and 10μL of TAMRA-p9J10Min. Plates were incubated at room temperature for 20 min on the robot's deck or in the Cytomat before the Fluorescence Polarisation was read using the BMG PheraStar plate reader. Test compounds were assayed in triplicate. […] DMSO controls were run alongside all experimental compounds and % inhibition normalised to these controls. All other experimental conditions were as described above.

[2] = test system: GFP-FOXO3a localization in U2OS-GFP-FOXO3a cells; assay: FOXO3a relocalisation assay, small-molecule inhibitors, U2OS-GFP-FOXO3a; assay type: cell-based, human
Experimental: Cells were transfected with plasmid DNA or siRNA or treated with compounds and incubated for the indicated time. Cells were then fixed in a final concentration of 3.7% formaldehyde by addition of fixative directly to the medium for 10min, then stained with 4 μg/mL Hoechst 33,342 (Invitrogen). For testing of peptides in the U2OS-GFP-FOXO3a cell line, cells were transfected with plasmid DNA using FuGENE 6 (Promega, E2691) as described for the screen. For testing of peptides in the HEK293T cell line, cells were co-transfected with a plasmid encoding the test plasmid and a plasmid encoding GFP-FOXO3a using JetPRIME transfection reagent in 96-well plates. At the indicated time point, cells were then fixed and stained as described above. Leptomycin B was purchased from NEB. PI-103 and BEZ235 were purchased from Selleckchem. GSK690693 was purchased from Sigma. […] Average intensities were calculated for each region and the ratio between nuclear and cytoplasmic GFP-FOXO3a was then calculated. […] Results were then expressed as the percentage of cells with nuclear GFP-FOXO3a. […] Images were acquired and then analyzed using a range of nuclear:cytoplasmic ratios to identify a ratio which reproducibly gave the maximal window between DMSO and PI-103 treated cells. […] Median intensities were calculated for each region and the ratio between nuclear and cytoplasmic GFP-FOXO3a was then calculated.

[3] = target: 6x His-14-3-3ε (full length human 14-3-3ε) (human) (UniProt P62258); assay: MST; 20 nM NT-647-labelled 14-3-3ε with cognate peptide (16-point dilution; 1 μM in the competitive assay with CU7218); 10 mM Hepes, 150 mM NaCl, 0.01% Tween 20; 25°C
[4] = target: 6x His-14-3-3ε (full length human 14-3-3ε) (human) (UniProt P62258); assay: fluorescence polarisation; competition: unlabelled 9J10 peptide titrated against 10 nM TAMRA-p9J10Min bound to 1.5 μM His-14-3-3ε; 10 mM HEPES, 150 mM NaCl, 0.05% Tween
[5] = target: 6x His-14-3-3ε (full length human 14-3-3ε) (human) (UniProt P62258); assay: ITC; 24 μM 14-3-3ε in the cell titrated with 360 μM TAMRA-9J10; 25°C; 50 mM HEPES, 150 mM NaCl, 0.5 mM DTT; one set of sites model
[6] = test system: transcriptome of HEK293T cells; assay: RNA sequencing, differential gene expression; assay type: cell-based, human; details: 24 h
Experimental: HEK293T cells were transfected in T75 flasks with plasmid DNA encoding Vector, 9J10^WT, 9J10^AMut, GFP-FOXO3a-AAA or GFP, using JetRPIME transfection reagent. Cells were harvested 24 hr post-transfection. Five independent transfections on different days and using cells of different passage number were carried out for each condition.
Total RNA was isolated using the Qiagen RNeasy Mini Kit (#74104) complete with DNase digestion (Qiagen #79254), according to manufacturers instructions. RNA was submitted to Novogene for transcriptome sequencing. RNA degradation and contamination was monitored on 1% agarose gels. RNA purity was checked using the NanoPhotometer spectrophotometer (IMPLEN, CA, USA), and RNA integrity and quantitation were assessed using the RNA Nano 6000 Assay Kit of the Bioanalyzer 2100 system (Agilent Technologies, CA, USA).
HTSeq v0.6.1 was used to count the read numbers mapped to each gene, and then FPKM of each gene was calculated based on the length of the gene and reads count mapped to this gene. FPKM, […] Per Kilobase of exon model per Million mapped reads, considers the effect of sequencing depth and gene length for the reads count at the same time, and is currently the most commonly used method for estimating gene expression levels ([Mortazavi et al., 2008]).
Differential expression analysis between two conditions/groups (with biological replicates) was performed using the DESeq2 R package (2_1.6.3). DESeq2 provide statistical routines for determining differential expression in digital gene expression data using a model based on the negative binomial distribution. The resulting p values were adjusted using the Benjamini and Hochberg's approach for controlling the False Discovery Rate (FDR). Genes with an adjusted p value of <0.05 found by DESeq2 were assigned as differentially expressed.

[7] = GFP-FOXO3a-AAA vs GFP, adjusted p <0.05

## 6x His-14-3-3ε (full length human 14-3-3ε) (from UniProt P62258 1-255) (natural protein)
[1]
  Kd: 1470 nM

## CC(C)C[C@H](N)C(=O)N[C@@H](CC(N)=O)C(=O)N[C@@H](CCCNC(=N)N)C(=O)N[C@H](C(=O)N1CCC[C@H]1C(=O)NCC(=O)N[C@@H](CCCNC(=N)N)C(=O)N[C@@H](CCCNC(=N)N)C(=O)N[C@@H](CCCNC(=N)N)C(=O)N[C@@H](CC(N)=O)C(=O)N[C@@H](COP(=O)(O)O)C(=O)N[C@@H](CC(N)=O)C(=O)O)[C@@H](C)O [unlabeled 9J10-derived phosphopeptide]
9J10/14-3-3ε interaction
  IC50: 9800 ± 1200 nM

## Oc1cccc(-c2nc(N3CCOCC3)c3oc4ncccc4c3n2)c1 [PI-103]
[2]; 1 μM PI-103, positive control
  nuclear translocation of GFP-FOXO3a: high degree of nuclear translocation of GFP-FOXO3a

## CCC(=C/[C@H](C)C/C=C/C(C)=C/[C@@H](C)C(=O)[C@@H](C)[C@H](O)[C@@H](C)C/C(C)=C/C(=O)O)/C=C/[C@@H]1OC(=O)C=C[C@@H]1C [leptomycin B]
[2]; U2OS-GFP-FOXO3a, 3 hr treatment, Figure 1A: PI-103 1 μM, GSK690693 1 μM, leptomycin 2 nM
  relocalization of GFP-FOXO3a to the nucleus: can be relocalized to the nucleus

B1: Unlabelled 9J10 peptide (…(p-Serine)N-acid) (peptide)
peptide: LNRTPGRRRNSN
HELM: PEPTIDE1{L.N.R.T.P.G.R.R.R.N.[O=C([C@H](COP(=O)(O)O)N[*:1])[*:2]].N}$$$$V2.0; N-terminus assumed
SMILES: CC(C)C[C@H](N)C(=O)N[C@@H](CC(N)=O)C(=O)N[C@@H](CCCNC(=N)N)C(=O)N[C@H](C(=O)N1CCC[C@H]1C(=O)NCC(=O)N[C@@H](CCCNC(=N)N)C(=O)N[C@@H](CCCNC(=N)N)C(=O)N[C@@H](CCCNC(=N)N)C(=O)N[C@@H](CC(N)=O)C(=O)N[C@@H](COP(=O)(O)O)C(=O)N[C@@H](CC(N)=O)C(=O)O)[C@@H](C)O
[3]
  EC80: 1000 nM
[4]
  IC50: 9800 nM

B2: TAMRA-9J10 peptide (5-TAMRA-…(p-Serine)N-acid) (peptide)
peptide: LNRTPGRRRNSN
HELM: PEPTIDE1{[CN(C)c1ccc2c(-c3ccc(C(=O)[*:2])cc3C(=O)[O-])c3ccc(N(C)C)cc3[o+]c2c1].L.N.R.T.P.G.R.R.R.N.[O=C([C@H](COP(=O)(O)O)N[*:1])[*:2]].N}$$$$V2.0
SMILES: CC(C)C[C@H](NC(=O)c1ccc(-c2c3ccc(N(C)C)cc3[o+]c3cc(N(C)C)ccc23)c(C(=O)[O-])c1)C(=O)N[C@@H](CC(N)=O)C(=O)N[C@@H](CCCNC(=N)N)C(=O)N[C@H](C(=O)N1CCC[C@H]1C(=O)NCC(=O)N[C@@H](CCCNC(=N)N)C(=O)N[C@@H](CCCNC(=N)N)C(=O)N[C@@H](CCCNC(=N)N)C(=O)N[C@@H](CC(N)=O)C(=O)N[C@@H](COP(=O)(O)O)C(=O)N[C@@H](CC(N)=O)C(=O)O)[C@@H](C)O
[5]
  Kd: 700 nM

B3: GFP-FOXO3a-AAA: constitutively active GFP-tagged FOXO3a mutant (protein, UniProt O43524 1-673, looked up, variant T32A S253A S315A)
Forkhead box protein O3: MAEAPASPAPLSPLEVELDPEFEPQSRPRSCAWPLQRPELQASPAKPSGETAADSMIPEEEDDEDDEDGGGRAGSAMAIGGGGGSGTLGSGLLLEDSARVLAPGGQDPGSGPATAAGGLSGGTQALLQPQQPLPPPQPGAAGGSGQPRKCSSRRNAWGNLSYADLITRAIESSPDKRLTLSQIYEWMVRCVPYFKDKGDSNSSAGWKNSIRHNLSLHSRFMRVQNEGTGKSSWWIINPDGGKSGKAPRRRAVAMDNSNKYTKSRGRAAKKKAALQTAPESADDSPSQLSKWPGSPTSRSSDELDAWTDFRSRTNANASTVSGRLSPIMASTELDEVQDDDAPLSPMLYSSSASLSPSVSKPCTVELPRLTDMAGTMNLNDGLTENLMDDLLDNITLPPSQPSPTGGLMQRSSSFPYTTKGSGLGSPTSSFNSTVFGPSSLNSLRQSPMQTIQENKPATFSSMSHYGNQTLQDLLTSDSLSHSDVMMTQSDPLMSQASTAVSAQNSRRNVMLRNDPMMSFAAQPNQGSLVNQNLLHHQHQTQGALGGSRALSNSVSNMGLSESSSLGSAKHQQQSPVSQSMQTLSDSLSGSSLYSTSANLPVMGHEKFPSDLDLDMFNGSLECDMESIIRSELMDADGLDFNFDSLISTQNVVGLNVGNFTGAKQASSQSWVPG
modifications: GFP tag
[6]; [7]
  number of downregulated genes: 2,569 genes
  number of upregulated genes: 3,026 genes
[6]; HEK293T
  CDKN1A (p21^Cip1) expression: upregulated
  CDKN1B (p27^Kip1) expression: upregulated
